Literature values in patent publication US20250326839A1, “TREATMENT OF DISEASES RELATED TO COLONY-STIMULATING FACTOR 1 RECEPTOR DYSFUNCTION USING TREM2 AGONISTS” (Vigil Neuroscience, Inc., priority 2020, published 2025).
Where a chain is given by its changes, count along the chain named. In names and notes the source's numbering stands. Like-named read-outs stand apart in the source and are kept apart here. Marks after values point to notes of the source that are not given here.

T1: TREM2 (Homo sapiens, UniProt Q9NZC2)
T1 sequence (Q9NZC2 19-230): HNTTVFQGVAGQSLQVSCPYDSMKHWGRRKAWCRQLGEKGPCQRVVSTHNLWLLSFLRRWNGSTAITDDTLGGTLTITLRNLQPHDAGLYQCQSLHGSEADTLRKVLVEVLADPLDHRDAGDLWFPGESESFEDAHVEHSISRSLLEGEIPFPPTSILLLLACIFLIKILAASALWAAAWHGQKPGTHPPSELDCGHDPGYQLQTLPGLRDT

B1: V87: 6E7 variant: VH T30R, T58V, S63D, Q99S; VL N56W (antibody, V domains shown)
VH: EVQLVQSGAEVKKPGESLKISCKGSGYSFRSYWIAWVRQMPGKGLEWMGIIYPGDSDVRYSPDFQGQVTISADKSISTAYLQWSSLKASDTAMYFCARSRTFYYDSSDYFDYWGQGTLVTVSS
VL: DIQMTQSPSSVSASVGDRVTITCRASQGISSWLAWYQQKPGKAPKLLIYAASSLQWGVPSRFSGSGSGTDFTLTISSLQPEDFATYFCQQADSFPRTFGQGTKLEIK
B2: V38: 6E7 variant: VH T30G, T58V; VL L54R, F94H (antibody, V domains shown)
VH: B1 VH with R30G, D63S, S99Q
VL: B1 VL with L54R, W56N, F94H
B3: V39: 6E7 variant: VH T30G, S61N, Q99G; VL Q55V, F94S (antibody, V domains shown)
VH: B1 VH with R30G, V58T, S61N, D63S, S99G
VL: B1 VL with Q55V, W56N, F94S
B4: V15: 6E7 variant: VH T30A, I50T, Q99S; VL S53W, F94Y (antibody, V domains shown)
VH: B1 VH with R30A, I50T, V58T, D63S
VL: B1 VL with S53W, W56N, F94Y
B5: V25: 6E7 variant: VH T30G, I50L, Q99S; VL Q55A, F94M (antibody, V domains shown)
VH: B1 VH with R30G, I50L, V58T, D63S
VL: B1 VL with Q55A, W56N, F94M
B6: V16: 6E7 variant: VH F29M, S56G, Q99S; VL S53N (antibody, V domains shown)
VH: B1 VH with F29M, R30T, S56G, V58T, D63S
VL: B1 VL with S53N, W56N
B7: V36: 6E7 variant: VH I34L, Q99S; VL L54R, F94Y (antibody, V domains shown)
VH: B1 VH with R30T, I34L, V58T, D63S
VL: B1 VL with L54R, W56N, F94Y
B8: V28: 6E7 variant: VH T30Q, I50T, Y103F; VL N56S, F94L (antibody, V domains shown)
VH: B1 VH with R30Q, I50T, V58T, D63S, S99Q, Y103F
VL: B1 VL with W56S, F94L
B9: V17: 6E7 variant: VH T30G, Q99S; VL L54R, F94S (antibody, V domains shown)
VH: B1 VH with R30G, V58T, D63S
VL: B1 VL with L54R, W56N, F94S
B10: V26: 6E7 variant: VH A35G, I50T, F102M, Y112A; VL N56R, F94Y (antibody, V domains shown)
VH: B1 VH with R30T, A35G, I50T, V58T, D63S, S99Q, F102M, Y112A
VL: B1 VL with W56R, F94Y
B11: V14: 6E7 variant: VH T30G, S56Q, Q99G; VL S53R (antibody, V domains shown)
VH: B1 VH with R30G, S56Q, V58T, D63S, S99G
VL: B1 VL with S53R, W56N
B12: V40: 6E7 variant: VH T30G, T58V, F110S; VL N56L, S93R (antibody, V domains shown)
VH: B1 VH with R30G, D63S, S99Q, F110S
VL: B1 VL with W56L, S93R
B13: V48: 6E7 variant: VH T30G, T58V, Q99M; VL N56T, F94L (antibody, V domains shown)
VH: B1 VH with R30G, D63S, S99M
VL: B1 VL with W56T, F94L
B14: V88: 6E7 variant: VH T30G; VL S53R, N56R, F94S (antibody, V domains shown)
VH: B1 VH with R30G, V58T, D63S, S99Q
VL: B1 VL with S53R, W56R, F94S
B15: V13: 6E7 variant: VH T30G, P62A, Q99G; VL N56G, F94M (antibody, V domains shown)
VH: B1 VH with R30G, V58T, P62A, D63S, S99G
VL: B1 VL with W56G, F94M
B16: V27: 6E7 variant: VH S61A, Q99S; VL N56R (antibody, V domains shown)
VH: B1 VH with R30T, V58T, S61A, D63S, A97V
VL: B1 VL with W56R
B17: V37: 6E7 variant: VH F29H, Q65A, Q99S; VL N56W, F94Y (antibody, V domains shown)
VH: B1 VH with F29H, R30T, V58T, D63S, Q65A
VL: B1 VL with F94Y
B18: V90: 6E7 variant: VH Y32E; VL S31R (antibody, V domains shown)
VH: B1 VH with R30T, Y32E, V58T, D63S, S99Q
VL: B1 VL with S31R, W56N
B19: V24: 6E7 variant: VH T58V, Q99S; VL N56K, R96H (antibody, V domains shown)
VH: B1 VH with R30T, D63S
VL: B1 VL with W56K, R96H

Target: T1, TREM2
Conditions: cited from earlier work
[1] = 10 nM Ab concentration (values not marked *)

Molecule | Binding Signal (fold over 6E7 parental antibody) 1st screen 110 nM or 10 nM [1] | Binding Signal (fold over 6E7 parental antibody) 2nd screen 2 nM (2nd screen) | Binding Signal (fold over 6E7 parental antibody) 2nd screen 10 nM (2nd screen) | Binding Signal (fold over 6E7 parental antibody) 1st screen 110 nM or 10 nM (110 nM Ab concentration (values marked *)) | Binding Signal (fold over 6E7 parental antibody) 2nd screen 100 nM (2nd screen, 100 nM)
B1 | 3.84 fold over 6E7 parental antibod | 4.86 fold over 6E7 parental antibod | 3.93 fold over 6E7 parental antibod | – | –
B2 | 4.34 fold over 6E7 parental antibod | 3.44 fold over 6E7 parental antibod | 4.36 fold over 6E7 parental antibod | – | –
B3 | 6.15 fold over 6E7 parental antibod | 5.11 fold over 6E7 parental antibod | 5.81 fold over 6E7 parental antibod | – | –
B4 | 5.23 fold over 6E7 parental antibod | 4.72 fold over 6E7 parental antibod | 4.78 fold over 6E7 parental antibod | – | –
B5 | 4.23 fold over 6E7 parental antibod | 3.15 fold over 6E7 parental antibod | 4.70 fold over 6E7 parental antibod | – | –
B6 | 4.01 fold over 6E7 parental antibod | 3.57 fold over 6E7 parental antibod | 4.04 fold over 6E7 parental antibod | – | –
B7 | 3.38 fold over 6E7 parental antibod | 4.00 fold over 6E7 parental antibod | 3.44 fold over 6E7 parental antibod | – | –
B8 | 3.08 fold over 6E7 parental antibod | 2.63 fold over 6E7 parental antibod | 3.61 fold over 6E7 parental antibod | – | –
B9 | 5.37 fold over 6E7 parental antibod | 4.22 fold over 6E7 parental antibod | 5.51 fold over 6E7 parental antibod | – | –
B10 | 3.57 fold over 6E7 parental antibod | 2.83 fold over 6E7 parental antibod | 3.47 fold over 6E7 parental antibod | – | –
B11 | 4.71 fold over 6E7 parental antibod | 2.57 fold over 6E7 parental antibod | 4.64 fold over 6E7 parental antibod | – | –
B12 | 4.48 fold over 6E7 parental antibod | 3.41 fold over 6E7 parental antibod | 4.16 fold over 6E7 parental antibod | – | –
B13 | 2.42 fold over 6E7 parental antibod | 2.30 fold over 6E7 parental antibod | 2.54 fold over 6E7 parental antibod | – | –
B14 | 4.92 fold over 6E7 parental antibod | 5.57 fold over 6E7 parental antibod | 5.30 fold over 6E7 parental antibod | – | –
B15 | 1.31 fold over 6E7 parental antibod | 1.15 fold over 6E7 parental antibod | 1.35 fold over 6E7 parental antibod | – | –
B16 | 5.50 fold over 6E7 parental antibod | 5.67 fold over 6E7 parental antibod | 5.69 fold over 6E7 parental antibod | – | –
B17 | 3.46 fold over 6E7 parental antibod | 3.69 fold over 6E7 parental antibod | 3.49 fold over 6E7 parental antibod | – | –
B18 | – | – | – | 0.33* fold over 6E7 parental antibod | 0.36 fold over 6E7 parental antibod
B19 | 2.64 fold over 6E7 parental antibod | 1.42 fold over 6E7 parental antibod | 2.90 fold over 6E7 parental antibod | – | –
